Assay results as given in US20230030314A1, “Method for Diagnosing Cancer, Cancer Diagnosis Composition, Cancer Diagnosis Kit, Method for Evaluating State of Cancer, and Method for Screening Agents for Preventing and/or Treating Cancer” (Kyushu University, National University Corporation, priority 2019, published 2023).
Ends that are not written are not given here.

Target: T1, PKCα (Homo sapiens, UniProt P17252)
T1 construct: endogenous in cells; host or cells: KU-1, KU-7, T24, TCCSUP, UMUC-3 bladder cancer cells
Assay: Phosphorylation of substrate peptide in bladder cancer-derived culture cells, MALDI-TOF MS
Assay type: biochemical
Conditions: bladder cancer-derived culture cells KU-1, KU-7, T24, TCCSUP, UMUC-3 (0.2 mg/ml cells); 30 μM peptide, 100 μM ATP, 37° C., 60 minutes
Procedure: An α-cyano-4-hydroxycinnamic acid (CHCA) matrix (10 mg/ml) was prepared in 50% water/acetonitrile and 0.1% TFA. This matrix and a sample were mixed in a ratio of 20:1. The resultant specimen/matrix mixture in a total volume of 1 μl was applied on a sample plate, and the resultant was crystallized by drying. In this example, Auto Flex Speed manufactured by Bruker was used in positive or negative mode. An acceleration voltage was set to 20 kV, and extraction delay time was set to 100 ns. Typically, 100 laser shots were averaged to improve a signal/noise ratio. All spectra were analyzed with Flex Analysis software (Bruker). A phosphorylation percentage was defined as an ionic strength ratio between a phosphorylated substance and a non-phosphorylated substance, and was calculated in accordance with existing description (Kang, J. -H. et al., (2007) J. Am. Soc. Mass Spectrom. 18, 106-112; and Kang J. -H. et al., (2007) J. Am. Soc. Mass Spectrom. 18, 1925-1931). In order to examine whether or not the PKCα specific substrate peptide could be phosphorylated by bladder cancer, culture cells derived from 5 different bladder cancers (KU-1, KU-7, T24, TCCSUP, and UMUC-3) were analyzed by MALDI-TOF MS. […] After performing incubation at 37° C. for 60 minutes, the resultant sample was analyzed by MALDI-TOF MS.

phosphorylation percentage of the substrate peptide: high phosphorylation percentages
Substance: FKKQGSFAKKK-NH2 [substrate peptide]
